Results on 7 compounds are retold here after patent publication US20200262869A1, “PEPTIDE ANTIBIOTIC COMPLEXES AND METHODS OF USE THEREOF” (GENENTECH, INC., priority 2017, published 2020).

Values after ≈ are worked out from the molar mass of the structure shown. Where only a bound is given, the exact number is not on record here.

The subject of assay [1] is A. baumannii ATCC 17978. As to the kind of experiment: MIC, broth microdilution. The assay is classed as cell-based. The procedure: (§1) Minimum Inhibitory Concentration (MIC). MICs were determined by performing two-fold serial dilutions of compound in Mueller Hinton II cation-adjusted broth to a final volume of 0.1 m1 in round-bottom 96-well assay plates (Corning Life Sciences No 3788). Each well was inoculated with 5×10^5 CFU/ml and incubated at 37° C. without agitation for 18 hours. Plates were scored by eye, and the lowest compound concentration preventing visible growth was determined to be the MIC.
On the technique in general: Dilution methods test growth across graded concentrations, often in twofold steps.

In assay [2] the test system is E. cloacae ATCC 13407. The experiment in a line: MIC, broth microdilution. The class given is cell-based. As for the experimental part: as §1
The subject of assay [3] is S. marcescens CDC4385-74. The experiment in a line: MIC, broth microdilution. The class given is cell-based. As for the experimental part:
as §1

Assay [4] has as its system C. werkmanii ATCC 51114. As to the kind of experiment: MIC, broth microdilution. The assay is classed as cell-based. The procedure:
as §1

The test system of assay [5] is K. pneumoniae ATCC 43816. As to the kind of experiment: MIC, broth microdilution. The assay is classed as cell-based. Conditions: K. pneumoniae ATCC 43816. The procedure: as §1
The subject of assay [6] is E. coli ATCC 25922. The experiment in a line: MIC, broth microdilution. The class given is cell-based. Particulars: E. coli ATCC 25922. The procedure: as §1
Assay [7] concerns P. aeruginosa ATCC 27853. The experiment in a line: MIC, broth microdilution. The class given is cell-based. The procedure: as §1
Assay [8] concerns E. aerogenes ATCC 13408. As to the kind of experiment: MIC, broth microdilution. The class given is cell-based. As for the experimental part: as §1
Assay [9] concerns MDR K. pneumoniae CDC 0106. As to the kind of experiment: MIC against MDR clinical isolate. The assay is classed as cell-based. As for the experimental part: as §1
Assay [10] has as its target LepB L142R (E. coli ATCC 25922) (E. coli) (UniProt P00803). The experiment in a line: cell-based or functional assay.
Assay [11] concerns the target LepB V149(VVGLP) (E. coli ATCC 25922) (E. coli) (UniProt P00803). The experiment in a line: cell-based or functional assay.
In assay [12] the target is LepB P88Q (E. coli ATCC 25922) (E. coli) (UniProt P00803). The experiment in a line: cell-based or functional assay.
Assay [13] addresses LepB V133F (E. coli ATCC 25922) (E. coli) (UniProt P00803). As to the kind of experiment: cell-based or functional assay.
Assay [14] has as its target LepB E83K (E. coli ATCC 25922) (E. coli) (UniProt P00803). As to the kind of experiment: cell-based or functional assay.
Assay [15] deals with LepB in E. coli K-12 MG1655 (E. coli) (UniProt P00803). The experiment in a line: cell-based or functional assay.
For assay [16], the target named is LepB A297V (E. coli ATCC 25922) (E. coli) (UniProt P00803). As to the kind of experiment: cell-based or functional assay.
In assay [17] the target is LepB P88R (E. coli ATCC 25922) (E. coli) (UniProt P00803). The experiment in a line: cell-based or functional assay.
Assay [18] deals with LepB P88L (E. coli ATCC 25922) (E. coli) (UniProt P00803). The experiment in a line: cell-based or functional assay.
Assay [19] addresses LepB F85S (E. coli ATCC 25922) (E. coli) (UniProt P00803). As to the kind of experiment: cell-based or functional assay.
Assay [20] has as its target LepB D143Y (E. coli ATCC 25922) (E. coli) (UniProt P00803). As to the kind of experiment: cell-based or functional assay.
In assay [21] the target is LepB P88T (E. coli ATCC 25922) (E. coli) (UniProt P00803). As to the kind of experiment: cell-based or functional assay.
Assay [22] addresses full length recombinant LepB from E. coli (E. coli) (UniProt P00803). As to the kind of experiment: kinetic enzyme assay, full-length LepB in detergent micelle, fluorogenic substrate Dabcyl-DAP-PAKAAE-Edans (SEQ ID NO: 6), 2-step irreversible binding model (Dynafit).

Turning to `CCCCCCCCCCCCCCCC(=O)N(C)[C@H](CO)C(=O)N[C@H](C)C(=O)NCC(=O)N(C)[C@@H]1C(=O)N[C@@H](C)C(=O)N[C@H](C(=O)O)Cc2ccc(O)c(c2)-c2cc1ccc2O` [Arylomycin A-C16, reference compound], the MIC in assay [1], in assay [2], in assay [3], in [4], in assay [5] and in assay [6] was over 64 µg/mL in each case. The MIC in assay [7] and in [8] was over 64 µg/mL throughout.

In assay [9] (Klebsiella pneumoniae), `C[C@H]1COc2c(N3CCN(C)CC3)c(F)cc3c(=O)c(C(=O)O)cn1c23` [Levofloxacin] had a minimum inhibitory concentration (MIC) of over 64 µg/mL.

Turning to `C[C@@H](O)[C@H]1C(=O)N2C(C(=O)O)=C(S[C@@H]3CN[C@H](C(=O)N(C)C)C3)[C@H](C)[C@H]12` [Meropenem], in assay [9] (Klebsiella pneumoniae), the MIC is over 64 µg/mL.

Turning to `CN(C)c1cc(NC(=O)CNC(C)(C)C)c(O)c2c1C[C@H]1C[C@H]3[C@H](N(C)C)C(O)=C(C(N)=O)C(=O)[C@@]3(O)C(O)=C1C2=O` [Tigecycline], it took 2 µg/mL (≈ 3.41 µM) to inhibit growth in assay [9] (Klebsiella pneumoniae) (MIC).

In assay [9] (MDR K. pneumoniae CDC 0106), Colistin displayed a minimum inhibitory concentration (MIC) of 16 µg/mL.

For G0775 (peptide), the Fold MIC Increase amounted to 8 fold in [10]; 128 fold in [11]; 4 fold in assay [12]; 16 fold in assay [13]; 16 fold in assay [14]; 4 fold in assay [16]. In addition, the Fold MIC Increase in [17] was 16 fold; in assay [18], 16 fold; in assay [19], 8 fold; in assay [20], 8 fold; in [21], 4 fold. The compound further gave a G0775 MIC (µg/ml), MG 1655 - LepB High (Increase LepB expression level) in assay [15] of 1 µg/mL. For the same compound, the G0775 MIC (µg/ml), MG 1655 - LepB Low (Reduced LepB expression level) in [15] is 0.008 µg/mL. For the same compound, in [15], the G0775 MIC (µg/ml), MG1655 WT amounted to 0.125 µg/mL. Besides, the maximal inactivation rate constant (kinact) in assay [22] is 0.0007 s⁻¹.

Gentamicin yielded an MIC in assay [9] (MDR K. pneumoniae CDC 0106) of over 64 µg/mL.

By MIC is commonly meant the least concentration at which growth counts as inhibited. As a reminder, the kinact is the rate constant of inactivation at saturating inhibitor.
